Reference: patent US20240318215A1

Assays:
[1] = target: pMag fused to C-terminal part of split T7 RNA polymerase, as carried on the pT7-Opto plasmid; test: cell-based or functional assay
[2] = target: pMag (F1) fused to second half of 563 T7RNAP non-star variant; test: cell-based or functional assay
Chain of pMag (F1) fused to second half of 563 T7RNAP non-star variant (chain, as listed by the source mutant limits assumed): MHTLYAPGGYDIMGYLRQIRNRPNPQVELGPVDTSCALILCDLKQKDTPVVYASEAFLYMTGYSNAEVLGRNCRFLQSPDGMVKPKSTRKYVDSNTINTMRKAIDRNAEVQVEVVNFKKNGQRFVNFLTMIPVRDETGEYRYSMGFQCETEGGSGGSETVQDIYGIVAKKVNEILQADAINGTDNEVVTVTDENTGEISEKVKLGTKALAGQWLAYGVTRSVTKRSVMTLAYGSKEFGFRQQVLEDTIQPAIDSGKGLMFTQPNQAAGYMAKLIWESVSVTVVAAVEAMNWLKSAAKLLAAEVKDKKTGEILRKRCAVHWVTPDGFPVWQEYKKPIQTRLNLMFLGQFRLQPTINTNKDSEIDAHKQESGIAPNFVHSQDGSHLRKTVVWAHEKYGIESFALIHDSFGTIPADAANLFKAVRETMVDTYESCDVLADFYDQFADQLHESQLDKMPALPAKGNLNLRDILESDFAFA

Chain of pMag fused to C-terminal part of split T7 RNA polymerase, as carried on the pT7-Opto plasmid (chain, as listed by the source limits assumed): as the sequence (chain, as listed by the source mutant limits assumed) above, with R225S counted along it

average pixel intensity (16-bit fluorescence scan) of the blue-light-exposed region of the pT7-Opto pellicle (pixel intensity (16-bit)) [1]: 10400
average pixel intensity (16-bit fluorescence scan) of the unexposed region of the pT7-Opto pellicle (pixel intensity (16-bit)) [1]: 5520
average red fluorescence of the light-exposed against the unexposed area of a K. rhaeticus pT7-Opto pellicle, fluorescence scan, 0.1% arabinose [1]: 1.8 fold
change in mCherry blue light response from dark to bright, flow cytometry, 96-well plate, 0.1% (w/v) arabinose [1]: 2.57 fold
change in mCherry blue light response from dark to bright, flow cytometry, 96-well plate, no arabinose [1]: 2.57 fold
fold change of mCherry between dark and light states, flow cytometry, 96-well plate, 1% (w/v) arabinose [1]: 1.33 fold
fold change of mCherry between dark and light states, flow cytometry, 96-well plate, 10% (w/v) arabinose [1]: 1.04 fold
mCherry expression, blue light against dark culture, flow cytometry, K. rhaeticus pT7-Opto, 0.1% arabinose [1]: 7.5 fold
increase of Tyr1 production (initial rate of melanin production, OD405) in blue light, strain Opto-T7RNAP(563-F1) with pT7 tyr1, 1 mg/mL arabinose [2]: 5.35 fold
increase of mCherry production in response to blue light, plate reader, strain Opto-T7RNAP(563-F1) with pT7 mCherry, 10 mg/mL arabinose [2]: 7.4 fold
B1: N-terminal part of split T7 RNA polymerase (563 split) fused to nMag (protein)
chain: MNTINIAKNDFSDIELAAIPFNTLADHYGERLAREQLALEHESYEMGEARFRKMFERQLKAGEVADNAAAKPLITTLLPKMIARINDWFEEVKAKRGKRPTAFQFLQEIKPEAVAYITIKTTLACLTSADNTTVQAVASAIGRAIEDEARFGRIRDLEAKHFKKNVEEQLNKRVGHVYKKAFMQVVEADMLSKGLLGGEAWSSWHKEDSIHVGVRCIEMLIESTGMVSLHRQNAGVVGQDSETIELAPEYAEAIATRAGALAGISPMFQPCVVPPKPWTGITGGGYWANGRRPLALVRTHSKKALMRYEDVYMPEVYKAINIAQNTAWKINKKVLAVANVITKWKHCPVEDIPAIEREELPMKPEDIDMNPEALTAWKRAAAAVYRKDKARKSRRISLEFMLEQANKFANHKAIWFPYNMDWRGRVYAVSMFNPQGNDMTKGLLTLAKGKPIGKEGYYWLKIHGANCAGVDKVPFPERIKFIEENHENIMACAKSPLENTWWAEQDSPFCFLAFCFEYAGVQHHGLSYNCSLPLAFDGSCSGIQHFSAMLRDEVGGRAVNLLPGGSGGHTLYAPGGYDIMGYLDQIGNRPNPQVELGPVDTSCALILCDLKQKDTPIVYASEAFLYMTGYSNAEVLGRNCRFLQSPDGMVKPKSTRKYVDSNTINTIRKAIDRNAEVQVEVVNFKKNGQRFVNFLTIIPVRDETGEYRYSMGFQCETE
